Target: Ikoma lyssavirus glycoprotein ectodomain (IKOV-G-ecto) (Ikoma lyssavirus (IKOV))
Assay: crystal structure

Substance “Ikoma lyssavirus glycoprotein ectodomain (IKOV-G-ecto) (domain or fragment)” has a stoichiometry N of 3.

From publication PMC11864512
